{"source": "paper PMC7072561", "conditions": "ubiquitination at K63"}
{"substance": "ubiquitin (HA-tagged): ubiquitin K63R", "values": [{"measurement": "other", "value": "decreases"}]}
